# Results reported in US20230002728A1, “STEM CELL FATE ENGINEERING METHODS” (Wisconsin Alumni Research Foundation, priority 2021, published 2023).
# B1: activin A: human recombinant activin A (R&D Systems, 338-AC-010), morphogen (protein, UniProt P08476 311-426, looked up)
# Inhibin beta A chain: GLECDGKVNICCKKQFFVSFKDIGWNDWIIAPSGYHANYCEGECPSHIAGTSGSSLSFHSTVINHYRMRGHSPFANLKSCCVPTKLRPMSMLYYDDGQNIIKKDIQNMIVEECGCS
# B2: Wnt3a: human recombinant Wnt3a (R&D Systems, 5036-WN-010), morphogen (protein, UniProt P56704 19-352, looked up)
# Protein Wnt-3a: SYPIWWSLAVGPQYSSLGSQPILCASIPGLVPKQLRFCRNYVEIMPSVAEGIKIGIQECQHQFRGRRWNCTTVHDSLAIFGPVLDKATRESAFVHAIASAGVAFAVTRSCAEGTAAICGCSSRHQGSPGKGWKWGGCSEDIEFGGMVSREFADARENRPDARSAMNRHNNEAGRQAIASHMHLKCKCHGLSGSCEVKTCWWSQPDFRAIGDFLKDKYDSASEMVVEKHRESRGWVETLRPRYTYFKVPTERDLVYYEASPNFCEPNPETGSFGTRDRTCNVSSHGIDGCDLLCCGRGHNARAERRREKCRCVFHWCCYVSCQECTRVYDVHTCK
# B3: noggin: human recombinant noggin (R&D Systems, 6057-NG-025), a BMP inhibitor (protein, UniProt Q13253 28-232, looked up)
# Noggin: QHYLHIRPAPSDNLPLVDLIEHPDPIFDPKEKDLNETLLRSLLGGHYDPGFMATSPPEDRPGGGGGAAGGAEDLAELDQLLRQRPSGAMPSEIKGLEFSEGLAQGKKQRLSKKLRRKLQMWLWSQTFCPVLYAWNDLGSRFWPRYVKVGSCFSKRSCSVPEGMVCKPSKSVHLTVLRWRCQRRGGQRCGWIPIQYPIISECKCSC
# What was measured:
# Assay type in all cases: cell-based, human
# H9 hESCs [1] = test: ALK inhibitor test on BMP4 patterns (BRA immunostaining, day 2); conditions: 1 μM A83-01, 10 μM SB-431542 or 2 μM LDN-212854 added for the initial 24 h
# Procedure: For localized mesendoderm differentiation, 2-2.5 ng/μl BMP4 solution was placed with various patterns on different substrates. For glass surfaces, 1.5 ng/μl BMP4 solution was used. 5 ng/μl noggin solution was placed as a droplet to show an inhibitory effect of noggin on BMP4-induced mesendoderm differentiation. After washing, substrate was coated with Matrigel® for 2 hours as described above. Glass was coated with Matrigel® overnight. 0.025 mg/ml Synthemax (Corning, 3535) (final concentration, diluted in water) was added to a washed TC-treated plate and the plate was incubated for 2 hours at room temperature prior to cell seeding. 5 μg/ml truncated recombinant human vitronectin (Gibco, A14700) diluted in PBS was added to a washed TC-treated plate and the plate was incubated for 1 hour at room temperature prior to cell seeding. After ECM coating, the ECM solution was aspirated and hPSCs were singularized using Accutase (10 min incubation at 37° C.), resuspended in mTeSR1 supplemented with 5 μM Y-27632, and seeded at 5×10^5 to about 1×10^6 cells/cm^2 on coated substrates (day 0). […]
# (§1) For immunostaining of other protein markers, cells were fixed in 4% paraformaldehyde (Electron Microscopy Sciences, 15710-S) in PBS for 15 min at room temperature, washed with PBS three times, and incubated in diluted primary antibodies in 5% nonfat dry milk (Santa Cruz Biotechnology, sc-2324)/0.4% Triton X-100 (Fisher Scientific, BP151-500) PBS overnight at 4° C. […] After secondary antibody staining, the cells were washed with PBS three times, incubated in 2 μg/ml Hoechst 33342 diluted in PBS for 5 min at room temperature, washed with PBS two times, and analyzed under the fluorescence microscope.
# Next, BMP4 solution was placed on TC-treated plates in various patterns (droplet, letters, circle, heart, and star), and hPSCs seeded onto the substrate in mTeSR1 maintenance medium. […] Since the presence of inhibitory morphogens is also important in developmental patterning, a BMP inhibitor, noggin, was evaluated for antagonism to localized BMP4-induced mesendoderm differentiation. […]
# H9 hESCs [2] = test: Localized definitive endoderm differentiation of hPSCs on adsorbed activin A patterns (SOX17/FOXA2 immunostaining)
# Procedure: For immunostaining of other protein markers, cells were fixed in 4% paraformaldehyde (Electron Microscopy Sciences, 15710-S) in PBS for 15 min at room temperature, washed with PBS three times, and incubated in diluted primary antibodies in 5% nonfat dry milk (Santa Cruz Biotechnology, sc-2324)/0.4% Triton X-100 (Fisher Scientific, BP151-500) PBS overnight at 4° C. Then, the cells were washed with PBS three times and incubated in diluted secondary antibody in 5% nonfat dry milk/0.4% Triton X-100 PBS for 30 min at room temperature. After secondary antibody staining, the cells were washed with PBS three times, incubated in 2 μg/ml Hoechst 33342 diluted in PBS for 5 min at room temperature, washed with PBS two times, and analyzed under the fluorescence microscope.
# For localized definitive endoderm differentiation, 25 ng/μl activin A solution was placed with various patterns on a TC-treated plate. Matrigel® coating and hPSC seeding was performed as the same way described above. Medium was changed daily with RPMI1640 medium supplemented with 2% FBS. For the ALK inhibitor test, 1 μM A83-01 (Tocris, 2939), 10 μM SB-431542 (Tocris, 1614), or 2 μM LDN-212854 (Tocris, 6151) was added to mTeSR1 at day 0. […]
# [3] = system: H9 hESC-derived cardiac progenitor cells (CPCs); test: Localized EpiC differentiation of hPSC-derived cardiac progenitors on morphogen droplets (WT1 immunostaining); conditions: droplets on TC-coated PS plate, 7d after cardiac progenitor seeding
# Procedure: For localized EpiC differentiation, BMP4 (2 ng/μl)+Wnt3a (40 ng/μl) solution was placed in PDMS stencil masks either on a TC-treated plate or an ibidi 35 mm polymer dish. Matrigel® coating was performed as described above. Cryopreserved CPCs were thawed and seeded at 500,000-550,000 cells/cm^2 in LaSR medium (advanced DMEM/F12 (Gibco, 12634-010) supplemented with 60 μg/ml ascorbic acid (Sigma, A8960) and 2.5 mM Glutamax (Gibco, 35050-061)) supplemented with 5 μM Y-27632). Medium was changed daily with fresh LaSR medium until analysis. Time lapse imaging of CPCs derived from H9-hTNNT2-GFP hESC during localized EpiC differentiation was performed using a fluorescence microscope equipped with a heating stage top incubator. 18 days after CPC seeding, cells cultured on an ibidi polymer dish were immunostained and imaged using a confocal microscope (Nikon, A1R-SI+) for the analysis of sarcomere structure.
# Spatial organization of cell fate commitment is important throughout development. […] These cardiac progenitors can further differentiate into CMs without any specific external signaling factors and can also differentiate into EpiCs upon activation of canonical Wnt signaling (Bao et al. (2016) Nature biomed. Eng. 1, 1-12).
# H9 hESCs [4] = test: Noggin droplet pattern, inhibitory effect on BMP4-induced mesendoderm differentiation (BRA immunostaining); conditions: 5 ng/μl noggin droplet on TC-treated PS; mTeSR1 with 10 ng/ml BMP4, 2 days
# Procedure: For localized mesendoderm differentiation, 2-2.5 ng/μl BMP4 solution was placed with various patterns on different substrates. For glass surfaces, 1.5 ng/μl BMP4 solution was used. 5 ng/μl noggin solution was placed as a droplet to show an inhibitory effect of noggin on BMP4-induced mesendoderm differentiation. After washing, substrate was coated with Matrigel® for 2 hours as described above. Glass was coated with Matrigel® overnight. 0.025 mg/ml Synthemax (Corning, 3535) (final concentration, diluted in water) was added to a washed TC-treated plate and the plate was incubated for 2 hours at room temperature prior to cell seeding. […]
# as §1, with “microscope. […]” for “microscope.”
molecule,measurement,setting,value
Cc1cccc(-c2nn(C(=S)Nc3ccccc3)cc2-c2ccnc3ccccc23)n1 [A83-01],BRA expression in cells on the BMP4-patterned area,H9 hESCs [1],suppressed BRA expression
c1cc(-c2cnn3cc(-c4ccc(N5CCNCC5)cc4)cnc23)c2cccnc2c1 [LDN-212854],BRA expression in cells on the BMP4-patterned area,H9 hESCs [1],suppressed BRA expression
NC(=O)c1ccc(-c2nc(-c3ccc4c(c3)OCO4)c(-c3ccccn3)[nH]2)cc1 [SB431542],BRA expression in cells on the BMP4-patterned area,H9 hESCs [1],suppressed BRA expression
B1,endoderm differentiation (patterned SOX17 expression),"H9 hESCs [2]; 25 ng/μl activin A adsorbed on TC-treated plate, day 3",induced localized endoderm differentiation
same,cells expressing SOX17 and FOXA2 on the patterned area,H9 hESCs [2]; day 5 of differentiation,almost all of the cells
B2,EpiC differentiation (WT1 expression),[3],limited if any EpiC differentiation
B3,effect on BMP4-induced mesendoderm differentiation (BRA expression),H9 hESCs [4],inhibited BMP4-induced mesendoderm differentiation
